Reference: patent US20210040185A1 (ATRECA, published 2021)
Positions count from the first letter of the chain named.

B1: NVS49-L2A1 (antibody, V domains shown)
VH: HVQLVQSGGGVKKIGAAVRISCEVTGYKFMDQLINWVRQAPGQGLEWMGWMNPTYGQVNYSWRFEGRVTMTRDMDTETAFMELRGLRVDDTAVYYCARGPSGENYPFHYWGQGVRVVVSS
VL: ASALTQPASMSASPGQSVTISCSGTRHIISAWFQQYPGKPPKLIIFDDDKRPSGVPSRFSASRPGDTASLTISNVQPEDEATYICNTYEFFGGGTRLTVL
B2: L2A1_H60SA (antibody, V domains shown)
VH: B1 VH with S61A
VL: B1 VL
B3: L2A1_H58NA (antibody, V domains shown)
VH: B1 VH with N59A
VL: B1 VL
B4: L2A1_H60SN (antibody, V domains shown)
VH: B1 VH with S61N
VL: B1 VL
B5: L2A1_H58NS (antibody, V domains shown)
VH: B1 VH with N59S
VL: B1 VL
B6: L2A1_H58NQ (antibody, V domains shown)
VH: B1 VH with N59Q
VL: B1 VL
B7: L2A1_H58ND (antibody, V domains shown)
VH: B1 VH with N59D
VL: B1 VL

target: HIV-1 envelope (Env) of virus CAP45.2.00.G3 (HIV-1); test: cell-based or functional assay

Row | Binder | IC50 of viral neutralization (Env.IMC.LucR virus, TZM-BL reporter cells)
1 | B1 | 0.069 µg/mL
2 | B2 | 0.039 µg/mL
3 | B3 | 0.05 µg/mL
4 | B4 | 0.032 µg/mL
5 | B5 | 0.04 µg/mL

target: HIV-1 envelope (Env) of virus CNE20 (HIV-1); test: cell-based or functional assay

Row | Binder | IC50 of viral neutralization (Env.IMC.LucR virus, TZM-BL reporter cells)
6 | B1 | 0.05 µg/mL
7 | B2 | 0.17 µg/mL
8 | B3 | > 50 µg/mL
9 | B4 | 0.317 µg/mL
10 | B6 | > 50 µg/mL
11 | B7 | > 50 µg/mL
12 | B5 | > 50 µg/mL

target: HIV-1 envelope (Env) of virus REJO4541.67 (HIV-1); test: cell-based or functional assay

Row | Binder | IC50 of viral neutralization (Env.IMC.LucR virus, TZM-BL reporter cells)
13 | B1 | 0.022 µg/mL
14 | B2 | 0.105 µg/mL
15 | B3 | 0.104 µg/mL
16 | B4 | 0.121 µg/mL
17 | B6 | 0.025 µg/mL
18 | B7 | 0.212 µg/mL
19 | B5 | 0.206 µg/mL

target: HIV-1 envelope (Env) of virus WITO4160.33 (HIV-1); test: cell-based or functional assay

Row | Binder | IC50 of viral neutralization (Env.IMC.LucR virus, TZM-BL reporter cells)
20 | B1 | 0.213 µg/mL
21 | B2 | 0.148 µg/mL
22 | B3 | 0.259 µg/mL
23 | B4 | 0.212 µg/mL
24 | B6 | 0.222 µg/mL
25 | B7 | 0.65 µg/mL
26 | B5 | 0.182 µg/mL

target: HIV-1 envelope (Env) of virus AC10.0.29 (HIV-1); test: cell-based or functional assay

Row | Binder | IC50 of viral neutralization (Env.IMC.LucR virus, TZM-BL reporter cells)
27 | B1 | 0.306 µg/mL
28 | B2 | 0.072 µg/mL
29 | B3 | 0.098 µg/mL
30 | B4 | 0.087 µg/mL
31 | B6 | > 50 µg/mL
32 | B7 | > 50 µg/mL
33 | B5 | 0.091 µg/mL

target: HIV-1 envelope (Env) of virus DU172.17 (HIV-1); test: cell-based or functional assay

Row | Binder | IC50 of viral neutralization (Env.IMC.LucR virus, TZM-BL reporter cells)
34 | B1 | 0.128 µg/mL
35 | B2 | 0.056 µg/mL
36 | B3 | 0.218 µg/mL
37 | B4 | 0.044 µg/mL
38 | B6 | 2.27 µg/mL
39 | B7 | 20.9 µg/mL
40 | B5 | 0.102 µg/mL
